Target: human wild-type D3R (HASS-FLAG-EGFP-3C protease-D3R in pcDNA4/TO) (human) (UniProt P35462)
Sequence of UniProt P35462 (P35462 whole entry): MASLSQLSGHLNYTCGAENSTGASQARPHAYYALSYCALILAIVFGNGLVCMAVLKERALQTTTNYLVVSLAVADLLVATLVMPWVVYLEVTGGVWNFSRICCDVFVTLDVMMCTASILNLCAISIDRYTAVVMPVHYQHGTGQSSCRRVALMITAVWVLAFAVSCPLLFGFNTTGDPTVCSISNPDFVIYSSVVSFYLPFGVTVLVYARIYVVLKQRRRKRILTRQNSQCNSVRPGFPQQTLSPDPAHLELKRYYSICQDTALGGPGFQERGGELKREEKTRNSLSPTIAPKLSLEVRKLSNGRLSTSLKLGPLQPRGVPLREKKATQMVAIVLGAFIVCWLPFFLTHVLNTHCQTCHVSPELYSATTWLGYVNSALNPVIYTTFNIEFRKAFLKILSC

Substance: GαOA-RLuc8 (from UniProt P09471 1-354) (natural protein)
- potency of FOB02-04A at D3R in the TRUPATH BRET2 assay in HEK293T cells, GOA against Gi1: 135 fold
